T1: endogenous human DLL3 on NCI-H82 cells (human, UniProt Q9NYJ7 27-618)
T1 sequence (looked up): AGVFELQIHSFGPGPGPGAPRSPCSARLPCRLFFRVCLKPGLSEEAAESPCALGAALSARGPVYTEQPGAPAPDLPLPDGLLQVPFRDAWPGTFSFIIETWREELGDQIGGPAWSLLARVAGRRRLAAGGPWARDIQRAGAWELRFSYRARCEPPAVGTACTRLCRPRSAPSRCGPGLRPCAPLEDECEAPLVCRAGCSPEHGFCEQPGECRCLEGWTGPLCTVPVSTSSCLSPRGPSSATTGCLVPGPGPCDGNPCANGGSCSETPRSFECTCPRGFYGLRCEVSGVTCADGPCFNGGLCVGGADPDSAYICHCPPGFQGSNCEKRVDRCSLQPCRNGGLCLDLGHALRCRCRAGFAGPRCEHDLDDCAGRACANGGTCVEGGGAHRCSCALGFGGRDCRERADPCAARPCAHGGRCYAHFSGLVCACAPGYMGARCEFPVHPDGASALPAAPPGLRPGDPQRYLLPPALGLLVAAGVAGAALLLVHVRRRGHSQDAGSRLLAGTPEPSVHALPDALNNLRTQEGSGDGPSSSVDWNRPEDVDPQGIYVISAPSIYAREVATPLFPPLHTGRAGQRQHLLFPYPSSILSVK

T2: full-length human DLL3 on transfected HEK293 cells (human, UniProt Q9NYJ7 27-618)
T2 construct: also called 293 hDLL3
T2 sequence: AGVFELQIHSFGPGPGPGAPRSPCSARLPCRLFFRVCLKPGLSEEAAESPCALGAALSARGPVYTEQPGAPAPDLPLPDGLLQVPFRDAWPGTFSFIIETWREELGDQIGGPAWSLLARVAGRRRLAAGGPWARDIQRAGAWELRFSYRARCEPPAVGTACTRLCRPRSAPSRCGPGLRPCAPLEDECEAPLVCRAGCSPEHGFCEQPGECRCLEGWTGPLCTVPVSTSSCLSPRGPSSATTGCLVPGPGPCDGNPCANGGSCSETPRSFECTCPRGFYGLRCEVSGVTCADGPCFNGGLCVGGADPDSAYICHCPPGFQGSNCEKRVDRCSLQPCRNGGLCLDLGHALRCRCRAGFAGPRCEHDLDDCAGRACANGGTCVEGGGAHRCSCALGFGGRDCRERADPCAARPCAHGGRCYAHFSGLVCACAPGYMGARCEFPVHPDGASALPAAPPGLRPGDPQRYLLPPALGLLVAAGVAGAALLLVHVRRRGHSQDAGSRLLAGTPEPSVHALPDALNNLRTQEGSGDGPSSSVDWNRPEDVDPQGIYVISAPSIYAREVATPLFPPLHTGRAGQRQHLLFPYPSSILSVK

T3: full-length mouse DLL3 on transfected HEK293 cells (mouse, UniProt O88516 33-584)
T3 construct: also called 293 mDLL3
T3 sequence: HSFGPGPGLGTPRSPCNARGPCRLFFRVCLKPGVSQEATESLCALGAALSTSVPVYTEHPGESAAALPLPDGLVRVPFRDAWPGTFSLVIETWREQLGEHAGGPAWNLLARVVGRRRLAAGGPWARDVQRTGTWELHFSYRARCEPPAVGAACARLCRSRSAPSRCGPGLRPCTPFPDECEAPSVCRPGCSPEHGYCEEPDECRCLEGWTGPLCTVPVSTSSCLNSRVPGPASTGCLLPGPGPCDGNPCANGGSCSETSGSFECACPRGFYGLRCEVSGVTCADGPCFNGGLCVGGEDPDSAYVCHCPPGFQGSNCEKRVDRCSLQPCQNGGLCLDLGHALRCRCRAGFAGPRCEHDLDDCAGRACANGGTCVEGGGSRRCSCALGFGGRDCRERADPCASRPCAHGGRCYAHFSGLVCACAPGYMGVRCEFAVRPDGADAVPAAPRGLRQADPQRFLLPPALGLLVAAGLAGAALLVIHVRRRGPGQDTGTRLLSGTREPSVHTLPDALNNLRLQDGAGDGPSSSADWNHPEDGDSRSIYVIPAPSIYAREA


Columns and labels:
[1] = target: T1, endogenous human DLL3 on NCI-H82 cells; assay: cell-based or functional assay
[2] = target: T1, endogenous human DLL3 on NCI-H82 cells; assay: cell-based or functional assay; remark: listed apart in the source
[3] = target: T4, full-length cynomolgous DLL3 on transfected HEK293 cells (cynomolgous); assay: flow cytometry, HEK293 cells transfected with full-length cynomolgous DLL3, mAb 10 µg/ml
T4 construct: whole, on cells; also called 293 cyno DLL3
Protocol: (§1) The four monoclonal antibodies (6-G23-F, 2-C8-A, 7-I1-B and 10-O18-A) were tested for their ability to bind to mouse and cynomolgous DLL3 as well as endogenous human DLL3 by flow cytometry. For this purpose, HEK293 cells were transfected with plasmid DNA encoding full-length human, mouse or cynomolgous DLL3 and used in the experiment. Briefly 106 transfected HEK293 cells or NCI-H82 primary cells were added in FACS buffer PBS 0.5% BSA to the wells of a 96 well U bottom plate and purified monoclonal added to 10 μg/ml. After 30 minutes incubation at 4° C. the cells were washed 3 times in FACS buffer and incubated with a PE labelled F(ab)2 anti-mouse IgG H and L 2nd stage. After another 30 minutes incubation at 4° C. the cells were washed three times in FACS buffer and analyzed on the flow cytometer. Data are presented at the ratio of the Mean Fluorescent Intensity for the monoclonal divided by the background staining with the 2nd stage. As shown in the Table below, all of the monoclonal antibodies cross reacted with cynomolgous DLL3 and detected endogenous DLL3 on NCI H82 cells but only 6-G23-F and 7-I1-B bound to mouse DLL3.

[4] = target: T2, full-length human DLL3 on transfected …; assay: flow cytometry, HEK293 cells transfected with full-length human DLL3, mAb 10 µg/ml
Protocol: as §1

[5] = target: T3, full-length mouse DLL3 on transfected …; assay: flow cytometry, HEK293 cells transfected with full-length mouse DLL3, mAb 10 µg/ml
Protocol: as §1

[6] = target: T1, endogenous human DLL3 on NCI-H82 cells; assay: cell-based or functional assay; remark: listed apart in the source
[7] = target: T1, endogenous human DLL3 on NCI-H82 cells; assay: flow cytometry, NCI-H82 cells (endogenous DLL3), mAb 10 µg/ml
Protocol: as §1

Binder | FAB ZAP % SC16 Max Killing, NCI-H82 cells [1] | MFI Ratio (4° C. plate / 37° C. plate), 4/37 internalization assay on NCI-H82 cells [2] | ratio of Mean Fluorescent Intensity (monoclonal / background staining with 2nd stage) [3] | ratio of Mean Fluorescent Intensity (monoclonal / background staining with 2nd stage) [4] | ratio of Mean Fluorescent Intensity (monoclonal / background staining with 2nd stage) [5] | Dy light Dy658 Fluorescence (% of the Control Reference Monoclonal Antibody), quenching internalization assay on NCI-H82 cells [6] | ratio of Mean Fluorescent Intensity (monoclonal / background staining with 2nd stage) [7]
7-I1-B (antibody, V domains shown, Hybridoma monoclonal from Ablexis AlivaMAb Kappa mice; captured and detected with anti-mouse Fc / anti-mouse IgG reagents; also called 7-I1-B (10 µg/ml)) VH: EVQLVESGGGLVKPGGSLRLSCAASGFTFSNTWMSWVRQAPGKGLEWVGRIKSKSDGGTTDYAAPVKGRFTISRDDSKNTLYLQMNSLKTEDTAVYYCTQYYWNSFDYWGQGTLVTVSS VL: not shown | 97% | 1.68 | 18.7 | 9.74 | 4.7 | 70.1% | 19.2
6-G23-F (antibody, V domains shown, Hybridoma monoclonal from Ablexis AlivaMAb Kappa mice (human immunoglobulin repertoire); the antibody was captured on anti-mouse Fc sensors and detected with anti-mouse IgG / anti-mouse IgG1 reagents; It is not the recombinant human IgG1 form H6-G23-F; also called 6-G23-F (10 µg/ml)) VH: QVQLVQSGAEVKKPGASVKVSCKASGYTFTSYYIHWVRQAPGQGLEWMGIIDPSDGSTNYAQKFQGRVTMTRDTSTSTVYMELSSLRSEDTAVYYCARDREYNYYGLDVWGQGTTVTVSS VL: not shown | 94% | 1.67 | 13.1 | 6.33 | 3.97 | 76.5% | 11.1
2-C8-A (antibody, V domains shown, Hybridoma monoclonal from Ablexis AlivaMAb Kappa mice; captured and detected with anti-mouse Fc / anti-mouse IgG reagents; It is not the recombinant human IgG1 form H2-C8-A; also called 2-C8-A (10 µg/ml)) VH: EVQLVESGGGLVQPGGSQRLSCAASGFTFSSYWMNWVRQAPGKGLEWVANIKEDGSEKYYVDSVKGRFTISRDNAKNSLYLQMNSLRAEDTAVYYCARDPGWAPFDYWGQGTLVTVSS VL: DIQMSQSPSSLSASVGDRVTITCRASQGISNYLAWFQQKPGKAPKSLIYAASSLQSGVPSKFSGSGSGTDFTLAISSLQPEDFATYYCQQYNSFPYTFGQGTTLEIK | 89% | 1.76 | 15 | 7.71 | 1.5 | 62.9% | 11.9
10-O18-A (antibody, V domains shown, Hybridoma monoclonal from Ablexis AlivaMAb Kappa mice; captured and detected with anti-mouse Fc / anti-mouse IgG reagents; It is not the recombinant human IgG1 form H10-O18-A; also called 10-O18-A (10 µg/ml)) VH: QVQLQESGPGLVKPSETLSLTCTVSGGSINSYYWSWIRQPPGKGLEWIGYIFYSGITNYNPSLKSRVTISLDTSKNQFSLKLSSVTAADTAVYYCARIGVAGFYFDYWGQGTLVTVSS VL: not shown | – | 1.56 | 9.85 | 4.74 | 0.99 | – | 9.4
